# IntAct's records for PubMed 25512093
# Molecular target: bicd2_human BICD2 (UniProt Q8TD16)
# Chain of UniProt Q8TD16 (Q8TD16 whole entry): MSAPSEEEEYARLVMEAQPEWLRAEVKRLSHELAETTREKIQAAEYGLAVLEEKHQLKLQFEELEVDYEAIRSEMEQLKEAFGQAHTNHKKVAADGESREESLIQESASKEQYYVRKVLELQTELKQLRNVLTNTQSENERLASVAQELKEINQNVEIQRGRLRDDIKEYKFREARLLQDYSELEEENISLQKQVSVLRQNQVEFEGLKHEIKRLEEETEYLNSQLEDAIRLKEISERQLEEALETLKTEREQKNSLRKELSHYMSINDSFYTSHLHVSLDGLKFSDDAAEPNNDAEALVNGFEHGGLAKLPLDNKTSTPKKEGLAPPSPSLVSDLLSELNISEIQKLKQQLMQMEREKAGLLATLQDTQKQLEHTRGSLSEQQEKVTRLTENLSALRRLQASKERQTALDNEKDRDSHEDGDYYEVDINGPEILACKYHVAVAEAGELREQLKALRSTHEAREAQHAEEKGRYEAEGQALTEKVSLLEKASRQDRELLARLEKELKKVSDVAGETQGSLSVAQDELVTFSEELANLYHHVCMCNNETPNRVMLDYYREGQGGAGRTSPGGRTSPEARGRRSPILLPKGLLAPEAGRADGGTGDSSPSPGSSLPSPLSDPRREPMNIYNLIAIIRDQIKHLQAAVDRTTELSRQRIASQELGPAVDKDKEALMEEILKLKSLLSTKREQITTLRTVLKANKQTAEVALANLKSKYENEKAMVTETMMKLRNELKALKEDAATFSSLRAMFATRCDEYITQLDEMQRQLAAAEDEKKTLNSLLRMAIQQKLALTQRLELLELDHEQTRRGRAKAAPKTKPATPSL
row,Substance,effect of a mutation on the interaction
1,"Cytoplasmic dynein 1 heavy chain 1 (Homo sapiens), Q14204 R598C",increasing interaction strength
2,"Cytoplasmic dynein 1 heavy chain 1 (Homo sapiens), Q14204 R264L",increasing interaction strength
